Laboratory results taken from patent publication US20050064507.

Assays:
[1] = target: T1, SOLH peptide PLRRRESMHVEQ (SEQ ID NO:210) (not fully specified)
T1 chain: PLRRRESMHVEQ

[2] = target: T2, p164-RhoGEF peptide PRLIRRGSKKRPAR (SEQ ID NO:82) (not fully specified)
T2 chain: PRLIRRGSKKRPAR

[3] = target: T3, M1 muscarinic receptor peptide RWDKRRWRKIPKRPGSVHRT (SEQ ID NO:155) (not fully specified)
T3 chain: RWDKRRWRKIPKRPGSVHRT

[4] = target: T4, dag kinase zeta peptide RPQNTLKASKKKKRASFKRK (SEQ ID NO:118) (not fully specified)
T4 chain: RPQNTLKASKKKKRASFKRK

[5] = target: T5, calcium channel, voltage-dependent, L type, alpha peptide RDIRQSPKRGFLRSASLGRR (SEQ ID NO:147) (not fully specified)
T5 chain: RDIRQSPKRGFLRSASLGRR

[6] = target: T6, ASIP peptide KKRSSKKEASMKKVVRP (SEQ ID NO:97) (not fully specified)
T6 chain: KKRSSKKEASMKKVVRP

[7] = target: T7, GABA A receptor beta 2 peptide ERHVAQKKSRLRRRASQLKI (SEQ ID NO:142) (not fully specified)
T7 chain: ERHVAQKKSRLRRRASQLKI

[8] = target: T8, PARIS1 peptide RELEQLKAEYLERRASRRRA (SEQ ID NO:148) (not fully specified)
T8 chain: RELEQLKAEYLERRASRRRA

[9] = target: T9, AKAP12 peptide AGWRKKTSFRKPKED (SEQ ID NO:99) (not fully specified)
T9 chain: AGWRKKTSFRKPKED

[10] = target: T10, pkc-zeta peptide GLPAPGEDKSIYRRGSRRWR (SEQ ID NO:167) (not fully specified)
T10 chain: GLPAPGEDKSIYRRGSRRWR

[11] = target: T11, NF1 peptide SQVQKQRSAGSFKRNSIKKI (SEQ ID NO:127) (not fully specified)
T11 chain: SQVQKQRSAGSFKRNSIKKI

[12] = target: T12, p164-RhoGEF peptide PRLIRRGSKKRPAR (SEQ ID NO:124) (not fully specified)
T12 chain: PRLIRRGSKKRPAR

[13] = target: T13, HERG peptide TELEGGFSRQRKRKLSFRRR (SEQ ID NO:140) (not fully specified)
T13 chain: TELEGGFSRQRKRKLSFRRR

[14] = target: T14, ANK1 peptide AQIVKRASLKRGKQ (SEQ ID NO:90) (not fully specified)
T14 chain: AQIVKRASLKRGKQ

[15] = target: T15, DGKI peptide NRKKKRTSFKRKA (SEQ ID NO:79) (not fully specified)
T15 chain: NRKKKRTSFKRKA

[16] = target: T16, ERN1 peptide ISDFGLAKKLAVGRHSFSRR (SEQ ID NO:145) (not fully specified)
T16 chain: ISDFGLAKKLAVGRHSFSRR

[17] = target: T17, MARCKS peptide PSPSNETPKKKKKRFSFKKS (SEQ ID NO:157) (not fully specified)
T17 chain: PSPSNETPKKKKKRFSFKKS

[18] = target: T18, PLEC1 peptide KRERKTSSKSSVRKRR (SEQ ID NO:81) (not fully specified)
T18 chain: KRERKTSSKSSVRKRR

[19] = target: T19, dag kinase iota peptide PQNSLKASNRKKKRTSFKRK (SEQ ID NO:151) (not fully specified)
T19 chain: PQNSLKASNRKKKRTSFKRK

[20] = target: T20, GABRB2 peptide QKKSRLRRRASQLKI (SEQ ID NO:84) (not fully specified)
T20 chain: QKKSRLRRRASQLKI

[21] = target: T21, ubiquitin specific protease 8 peptide RARRDSLKKIEIW (SEQ ID NO:136) (not fully specified)
T21 chain: RARRDSLKKIEIW

[22] = target: T22, NF1 peptide AGSFKRNSIKKIV (SEQ ID NO:102) (not fully specified)
T22 chain: AGSFKRNSIKKIV

[23] = target: T23, p47phox peptide QAQRQIKRGAPPRRSSIRNA (SEQ ID NO:146) (not fully specified)
T23 chain: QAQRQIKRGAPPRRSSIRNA

[24] = target: T24, SYTL4 peptide RQGKRKTSIKRDTVNPL (SEQ ID NO:87) (not fully specified)
T24 chain: RQGKRKTSIKRDTVNPL

[25] = target: T25, NMDAR1 peptide RAITSTLASSFKRRR (SEQ ID NO:122) (not fully specified)
T25 chain: RAITSTLASSFKRRR

[26] = target: T26, NIK peptide TEGKMARVAWKGKRRSKARK (SEQ ID NO:164) (not fully specified)
T26 chain: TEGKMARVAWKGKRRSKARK

[27] = target: T27, MCM2 peptide VQRHRSMRKTFARYLSFRRD (SEQ ID NO:129) (not fully specified)
T27 chain: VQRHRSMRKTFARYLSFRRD

[28] = target: T28, PCTK2 peptide KKFKRRLSLTLR (SEQ ID NO:185) (not fully specified)
T28 chain: KKFKRRLSLTLR

[29] = target: T29, PRKCA peptide RFARKGSLRQKNV (SEQ ID NO:85) (not fully specified)
T29 chain: RFARKGSLRQKNV

[30] = target: T30, beta adducin peptide KKKFRTPSFLKKSKK (SEQ ID NO:135) (not fully specified)
T30 chain: KKKFRTPSFLKKSKK

[31] = target: T31, MARCKS peptide KKRFSFKKSFKLSGFSFKKN (SEQ ID NO:119) (not fully specified)
T31 chain: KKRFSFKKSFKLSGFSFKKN

B1: PKC-theta (protein)
chain: MSPFLRIGLSNFDCGSCQSCQGEAVNPYCAVLVKEYVESENGQMYIQKKPTMYPPWDSTFDAHINKGRVMQIIVKGKNVDLISETTVELYSLAERCRKNNGKTEIWLELKPQGRMLMNARYFLEMSDTKDMNEFETEGFFALHQRRGAIKQAKVHHVKCHEFTATFFPQPTFCSVCHEFVWGLNKQGYQCRQCNAAIHKKCIDKVIAKCTGSAINSRETMFHKERFKIDMPHRFKVYNYKSPTFCEHCGTLLWGLARQGLKCDACGMNVHHRCQTKVANLCGINQKLMAEALAMIESTQQARCLRDTEQIFREGPVEIGLPCSIKNEARPPCLPTPGKREPQGISWESPLDEVDKMCHLPEPELNKERPSLQIKLKIEDFILHKMLGKGSFGKVFLAEFKKTNQFFAIKALKKDVVLMDDDVECTMVEKRVLSLAWEHPFLTHMFCTFQTKENLFFVMEYLNGGDLMYHIQSCHKFDLSRATFYAAEIILGLQFLHSKGIVYRDLKLDNILLDKDGHIKIADFGMCKENMLGDAKTNTFCGTPDYIAPEILLGQKYNHSVDWWSFGVLLYEMLIGQSPFHGQDEEELFHSIRMDNPFYPRWLEKEAKDLLVKLFVREPEKRLGVRGDIRQHPLFREINWEELERKEIDPPFRPKVKSPFDCSNFDKEFLNEKPRLSFADRALINSMDQNMFRNFSFMNPGMERLIS
in vitro phosphorylation (% of best substrate) [1]: 16
in vitro phosphorylation (% of best substrate) [2]: 49
in vitro phosphorylation, 1 uM peptide (% of best substrate) [3]: 23
in vitro phosphorylation, 10 uM peptide (% of best substrate) [3]: 26
in vitro phosphorylation, 1 uM peptide (% of best substrate) [4]: 67
in vitro phosphorylation, 10 uM peptide (% of best substrate) [4]: 52
in vitro phosphorylation, 1 uM peptide (% of best substrate) [5]: 20
in vitro phosphorylation, 10 uM peptide (% of best substrate) [5]: 69
in vitro phosphorylation (% of best substrate) [6]: 31
in vitro phosphorylation, 1 uM peptide (% of best substrate) [7]: 28
in vitro phosphorylation, 10 uM peptide (% of best substrate) [7]: 37
in vitro phosphorylation, 1 uM peptide (% of best substrate) [8]: 34
in vitro phosphorylation, 10 uM peptide (% of best substrate) [8]: 34
in vitro phosphorylation (% of best substrate) [9]: 25
in vitro phosphorylation, 1 uM peptide (% of best substrate) [10]: 12
in vitro phosphorylation, 10 uM peptide (% of best substrate) [10]: 14
in vitro phosphorylation, 1 uM peptide (% of best substrate) [11]: 45
in vitro phosphorylation, 10 uM peptide (% of best substrate) [11]: 58
in vitro phosphorylation, 1 uM peptide (% of best substrate) [12]: 53
in vitro phosphorylation, 10 uM peptide (% of best substrate) [12]: 57
in vitro phosphorylation, 1 uM peptide (% of best substrate) [13]: 25
in vitro phosphorylation, 10 uM peptide (% of best substrate) [13]: 35
in vitro phosphorylation (% of best substrate) [14]: 38
in vitro phosphorylation (% of best substrate) [15]: 33
in vitro phosphorylation, 1 uM peptide (% of best substrate) [16]: 27
in vitro phosphorylation, 10 uM peptide (% of best substrate) [16]: 25
in vitro phosphorylation, 1 uM peptide (% of best substrate) [17]: 20
in vitro phosphorylation, 10 uM peptide (% of best substrate) [17]: 23
in vitro phosphorylation (% of best substrate) [18]: 46
in vitro phosphorylation, 1 uM peptide (% of best substrate) [19]: 25
in vitro phosphorylation, 10 uM peptide (% of best substrate) [19]: 19
in vitro phosphorylation (% of best substrate) [20]: 87
in vitro phosphorylation, 1 uM peptide (% of best substrate) [21]: 42
in vitro phosphorylation, 10 uM peptide (% of best substrate) [21]: 28
in vitro phosphorylation (% of best substrate) [22]: 28
in vitro phosphorylation, 1 uM peptide (% of best substrate) [23]: 33
in vitro phosphorylation, 10 uM peptide (% of best substrate) [23]: 34
in vitro phosphorylation (% of best substrate) [24]: 65
in vitro phosphorylation, 1 uM peptide (% of best substrate) [25]: 66
in vitro phosphorylation, 10 uM peptide (% of best substrate) [25]: 42
in vitro phosphorylation, 1 uM peptide (% of best substrate) [26]: 24
in vitro phosphorylation, 10 uM peptide (% of best substrate) [26]: 20
in vitro phosphorylation, 1 uM peptide (% of best substrate) [27]: 48
in vitro phosphorylation, 10 uM peptide (% of best substrate) [27]: 25
in vitro phosphorylation (% of best substrate) [28]: 51
in vitro phosphorylation (% of best substrate) [29]: 46
in vitro phosphorylation, 1 uM peptide (% of best substrate) [30]: 30
in vitro phosphorylation, 10 uM peptide (% of best substrate) [30]: 36
in vitro phosphorylation, 1 uM peptide (% of best substrate) [31]: 69
in vitro phosphorylation, 10 uM peptide (% of best substrate) [31]: 28
